Laboratory results reported in US20150344570A1 (published 2015).

T1: FcγRIIb extracellular domain with C-terminal His tag (human, UniProt P31994 43-217)
T1 construct: extracellular domain; expressed in FreeStyle293 cells; analyte in Biacore; also called FcgRIIb; 2b
T1 sequence (looked up): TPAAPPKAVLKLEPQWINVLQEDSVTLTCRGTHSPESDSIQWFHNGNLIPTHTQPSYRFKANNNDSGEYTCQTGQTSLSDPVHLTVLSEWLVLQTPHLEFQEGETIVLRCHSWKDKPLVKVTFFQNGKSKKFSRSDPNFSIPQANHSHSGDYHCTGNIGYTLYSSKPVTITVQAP

B1: GpH7-A5/GpH7-B3 variant Y300_20W/GpL16-k0 (heterodimerized antibody, He Ab) (antibody, human IgG1, kappa)
heavy 1: not shown
heavy 2: not shown
light: DIVMTQSPLSLPVTPGEPASISCQASESLVHSNRNTYLHWYLQKPGQSPQLLIYKVSNRFSGVPDRFSGSGSGTDFTLKISRVEAEDVGVYYCSQNTHVPPTFGQGTKVEIERTVAAPSVFIFPPSDEQLKSGTASVVCLLNNFYPREAKVQWKVDNALQSGNSQESVTEQDSKDSTYSLSSTLTLSKADYEKHKVYACEVTHQGLSSPVTKSFNRGEC
notes: Anti-glypican-3 IgG1; alteration only in the GpH7-B3 (K439E) chain; other H chain is GpH7-A5 (D356K/H435R)
B2: GpH7-A5/GpH7-B3 variant D265_01G/GpL16-k0 (antibody, human IgG1, kappa)
heavy 1: not shown
heavy 2: not shown
light: B1 light
notes: He Ab; IgG1, mutation in one H chain
B3: GpH7-A5/GpH7-B3 variant D265_16H/GpL16-k0 (antibody, human IgG1, kappa)
heavy 1: not shown
heavy 2: not shown
light: B1 light
notes: as for B2
B4: GpH7-A5/GpH7-B3 variant D265_12R/GpL16-k0 (antibody, human IgG1, kappa)
heavy 1: not shown
heavy 2: not shown
light: B1 light
notes: as for B2
B5: GpH7-A5/GpH7-B3 variant D265_20W/GpL16-k0 (antibody, human IgG1, kappa)
heavy 1: not shown
heavy 2: not shown
light: B1 light
notes: as for B2
B6: GpH7-A5/GpH7-B3 variant D265_15Y/GpL16-k0 (antibody, human IgG1, kappa)
heavy 1: not shown
heavy 2: not shown
light: B1 light
notes: as for B2
B7: GpH7-A5/GpH7-B3 variant D265_19Q/GpL16-k0 (antibody, human IgG1, kappa)
heavy 1: not shown
heavy 2: not shown
light: B1 light
notes: as for B2
B8: GpH7-A5/GpH7-B3 variant V266_13S/GpL16-k0 (antibody, human IgG1, kappa)
heavy 1: not shown
heavy 2: not shown
light: B1 light
notes: as for B2
B9: GpH7-A5/GpH7-B3 variant V266_04F/GpL16-k0 (antibody, human IgG1, kappa)
heavy 1: not shown
heavy 2: not shown
light: B1 light
notes: as for B2
B10: GpH7-A5/GpH7-B3 variant V266_01G/GpL16-k0 (antibody, human IgG1, kappa)
heavy 1: not shown
heavy 2: not shown
light: B1 light
notes: as for B2
B11: GpH7-A5/GpH7-B3 variant D265_14T/GpL16-k0 (antibody, human IgG1, kappa)
heavy 1: not shown
heavy 2: not shown
light: B1 light
notes: as for B2
B12: GpH7-A5/GpH7-B3 variant D265_02A/GpL16-k0 (antibody, human IgG1, kappa)
heavy 1: not shown
heavy 2: not shown
light: B1 light
notes: as for B2
B13: GpH7-A5/GpH7-B3 variant V266_11K/GpL16-k0 (antibody, human IgG1, kappa)
heavy 1: not shown
heavy 2: not shown
light: B1 light
notes: as for B2
B14: GpH7-A5/GpH7-B3 variant D265_06M/GpL16-k0 (antibody, human IgG1, kappa)
heavy 1: not shown
heavy 2: not shown
light: B1 light
notes: as for B2
B15: GpH7-A5/GpH7-B3 variant D265_13S/GpL16-k0 (antibody, human IgG1, kappa)
heavy 1: not shown
heavy 2: not shown
light: B1 light
notes: as for B2
B16: GpH7-A5/GpH7-B3 variant D265_18N/GpL16-k0 (antibody, human IgG1, kappa)
heavy 1: not shown
heavy 2: not shown
light: B1 light
notes: as for B2
B17: GpH7-A5/GpH7-B3 variant D265_08L/GpL16-k0 (antibody, human IgG1, kappa)
heavy 1: not shown
heavy 2: not shown
light: B1 light
notes: as for B2

Target: T2, FcγRIa (human, UniProt P12314 16-292)
T2 construct: extracellular domain; Soluble extracellular domain with C-terminal His tag, expressed in FreeStyle293 cells; analyte in Biacore; also called FcgRI; CD64; not shown: His tag attached to the C terminus
Assay: SPR (Biacore), antibody captured on antigen-peptide chip, FcγRIa as analyte; binding activity relative to control GpH7-A5/GpH7-B3/GpL16-k0 (HeCon Ab) x100
Method: Analysis of interaction between objective antibody and the FcγR was carried out using Biacore T100 (GE Healthcare). HBS-EP+ (GE Healthcare) was used as the running buffer, and the measurement temperature was set to 25° C. Chips produced by immobilizing the antigen peptide by the amine coupling method to a Series S Sencor Chip CM5 (GE Healthcare), or alternatively, chips produced by allowing preliminarily biotinylated antigen peptides to interact with and immobilize onto a Series S Sensor Chip SA (certified) (GE Healthcare) were used. Antibodies of interest were captured onto an antigen peptide-immobilized chip, and allowed to interact to each FcγR diluted with running buffer. To regenerate and repeatedly use the chip, the antibodies captured on the chip were washed off by reacting 10 mM glycine-HCl, pH 1.5.

T2 sequence (P12314 16-292): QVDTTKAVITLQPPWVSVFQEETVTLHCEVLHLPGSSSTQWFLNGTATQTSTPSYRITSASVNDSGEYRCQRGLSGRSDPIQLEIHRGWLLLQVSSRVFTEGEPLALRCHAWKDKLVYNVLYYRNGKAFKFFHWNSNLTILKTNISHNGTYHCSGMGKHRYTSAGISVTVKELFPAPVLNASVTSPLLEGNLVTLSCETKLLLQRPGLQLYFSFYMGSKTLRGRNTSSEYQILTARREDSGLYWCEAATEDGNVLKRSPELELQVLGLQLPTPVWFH

He/Con_1a | Binder
112 % of control (=100) | B1

Target: T3, FcγRIa extracellular domain with C-terminal His tag (human, UniProt P12314 16-292)
T3 construct: extracellular domain; expressed in FreeStyle293 cells; analyte in Biacore; also called FcgRI; 1a
Assay: SPR (Biacore); He/Con_1a divided by He/Con_2b (FcγRIIb as reference)

T3 sequence (P12314 16-292): as above

He_1a/2b (Ia/IIb) | Binder
4.95 ratio | B2
2.23 ratio | B3
2.96 ratio | B4
45.6 ratio | B5
73.5 ratio | B6
2.66 ratio | B7
1.67 ratio | B8
1.68 ratio | B9
1.77 ratio | B10
4.9 ratio | B11
4.25 ratio | B12
63.5 ratio | B13
7.57 ratio | B14
6.07 ratio | B15
4.52 ratio | B16
12.4 ratio | B17

Target: T1, FcγRIIb extracellular domain with …
Assay: SPR (Biacore), captured antibody, FcγR as analyte; relative binding

He/Con_2b | Binder
16.1 % of HeCon Ab (GpH7-A5/GpH7-B3/GpL16-k0 = 100) | B2
38.3 % of HeCon Ab (GpH7-A5/GpH7-B3/GpL16-k0 = 100) | B3
15 % of HeCon Ab (GpH7-A5/GpH7-B3/GpL16-k0 = 100) | B4
1.1 % of HeCon Ab (GpH7-A5/GpH7-B3/GpL16-k0 = 100) | B5
0.6 % of HeCon Ab (GpH7-A5/GpH7-B3/GpL16-k0 = 100) | B6
33.4 % of HeCon Ab (GpH7-A5/GpH7-B3/GpL16-k0 = 100) | B7
54.4 % of HeCon Ab (GpH7-A5/GpH7-B3/GpL16-k0 = 100) | B8
57.6 % of HeCon Ab (GpH7-A5/GpH7-B3/GpL16-k0 = 100) | B9
51.5 % of HeCon Ab (GpH7-A5/GpH7-B3/GpL16-k0 = 100) | B10
16 % of HeCon Ab (GpH7-A5/GpH7-B3/GpL16-k0 = 100) | B11
19.9 % of HeCon Ab (GpH7-A5/GpH7-B3/GpL16-k0 = 100) | B12
1 % of HeCon Ab (GpH7-A5/GpH7-B3/GpL16-k0 = 100) | B13
10 % of HeCon Ab (GpH7-A5/GpH7-B3/GpL16-k0 = 100) | B14
11.3 % of HeCon Ab (GpH7-A5/GpH7-B3/GpL16-k0 = 100) | B15
6.1 % of HeCon Ab (GpH7-A5/GpH7-B3/GpL16-k0 = 100) | B16
4.6 % of HeCon Ab (GpH7-A5/GpH7-B3/GpL16-k0 = 100) | B17

Target: T3, FcγRIa extracellular domain with …
Assay: as above

He/Con_1a | Binder
79.9 % of HeCon Ab (GpH7-A5/GpH7-B3/GpL16-k0 = 100) | B2
85.4 % of HeCon Ab (GpH7-A5/GpH7-B3/GpL16-k0 = 100) | B3
44.3 % of HeCon Ab (GpH7-A5/GpH7-B3/GpL16-k0 = 100) | B4
51.5 % of HeCon Ab (GpH7-A5/GpH7-B3/GpL16-k0 = 100) | B5
44.3 % of HeCon Ab (GpH7-A5/GpH7-B3/GpL16-k0 = 100) | B6
88.8 % of HeCon Ab (GpH7-A5/GpH7-B3/GpL16-k0 = 100) | B7
90.6 % of HeCon Ab (GpH7-A5/GpH7-B3/GpL16-k0 = 100) | B8
96.7 % of HeCon Ab (GpH7-A5/GpH7-B3/GpL16-k0 = 100) | B9
91.3 % of HeCon Ab (GpH7-A5/GpH7-B3/GpL16-k0 = 100) | B10
78.5 % of HeCon Ab (GpH7-A5/GpH7-B3/GpL16-k0 = 100) | B11
84.5 % of HeCon Ab (GpH7-A5/GpH7-B3/GpL16-k0 = 100) | B12
64.4 % of HeCon Ab (GpH7-A5/GpH7-B3/GpL16-k0 = 100) | B13
75.7 % of HeCon Ab (GpH7-A5/GpH7-B3/GpL16-k0 = 100) | B14
68.7 % of HeCon Ab (GpH7-A5/GpH7-B3/GpL16-k0 = 100) | B15
27.7 % of HeCon Ab (GpH7-A5/GpH7-B3/GpL16-k0 = 100) | B16
56.8 % of HeCon Ab (GpH7-A5/GpH7-B3/GpL16-k0 = 100) | B17
